Measured values: paper PMC11973430, “Rubisco packaging and stoichiometric composition of the native β-carboxysome in Synechococcus elongatus PCC7942” (Plant Physiology, 2024)

Molecular target: T1, Rubisco L8S8 hexadecamer (Form IB ribulose-1,5-bisphosphate carboxylase/oxygenase) of Synechococcus elongatus … (Synechococcus elongatus PCC7942 …, UniProt Q31NB3 1-472; Q31NB2 1-111)
T1 construct: Rubisco large subunit RbcL, Synechococcus elongatus PCC7942, GenBank ABB57456.1; 52.4 kDa; Rubisco small subunit RbcS, Synechococcus elongatus PCC7942, GenBank ABB57457.1; 13.3 kDa; Native holoenzyme imaged inside isolated β-carboxysomes; not separated from the other carboxysome proteins; also called Rubisco complex; Form IB Rubisco; source: endogenous, inside β-carboxysomes purified from Syn7942 …
Test: cryo-EM structure; cryoET and subtomogram averaging (emClarity, D4 symmetry) of Rubisco inside isolated native Syn7942 β-carboxysomes (185 carboxysomes) in TEMB buffer (10 mM Tris-HCl pH 8.0, 1 mM EDTA, 10 mM MgCl2, 20 mM NaHCO3); 3.5 Å
Conditions: partners not purified

T1 sequence (Q31NB2 whole entry, chain 2 of 2, other chains not shown): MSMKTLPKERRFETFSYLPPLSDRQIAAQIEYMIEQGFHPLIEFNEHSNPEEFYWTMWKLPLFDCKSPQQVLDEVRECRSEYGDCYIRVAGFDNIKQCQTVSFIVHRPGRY

B1: Carboxysome scaffolding (linker) protein CcmM of Synechococcus elongatus PCC7942 (natural protein, UniProt Q03513-2 1-324, looked up)
chain: MSAYNGQGRLSSEVITQVRSLLNQGYRIGTEHADKRRFRTSSWQPCAPIQSTNERQVLSELENCLSEHEGEYVRLLGIDTNTRSRVFEALIQRPDGSVPESLGSQPVAVASGGGRQSSYASVSGNLSAEVVNKVRNLLAQGYRIGTEHADKRRFRTSSWQSCAPIQSSNERQVLAELENCLSEHEGEYVRLLGIDTASRSRVFEALIQDPQGPVGSAKAAAAPVSSATPSSHSYTSNGSSSSDVAGQVRGLLAQGYRISAEVADKRRFQTSSWQSLPALSGQSEATVLPALESILQEHKGKYVRLIGIDPAARRRVAELLIQKP
notes: CcmM, Synechococcus elongatus PCC7942, GenBank AAA27306.1; present in the native β-carboxysome as two isoforms, the full-length 58-kDa CcmM58 and the 35-kDa truncated CcmM35 (three SSUL domains each); Mixture of CcmM35 and CcmM58 in the native carboxysome; also called CcmM35; CcmM58; source: endogenous, inside β-carboxysomes purified from Syn7942 (sucrose gradient ultracentrifugation)
  stoichiometry N: 4 CcmM SSUL domains per Rubisco L8S8
